{"source": "paper PMC5493979", "origin": "cited, not measured here", "molecular_target": "LRAT (UniProt O95237)", "sequence (O95237 whole entry)": "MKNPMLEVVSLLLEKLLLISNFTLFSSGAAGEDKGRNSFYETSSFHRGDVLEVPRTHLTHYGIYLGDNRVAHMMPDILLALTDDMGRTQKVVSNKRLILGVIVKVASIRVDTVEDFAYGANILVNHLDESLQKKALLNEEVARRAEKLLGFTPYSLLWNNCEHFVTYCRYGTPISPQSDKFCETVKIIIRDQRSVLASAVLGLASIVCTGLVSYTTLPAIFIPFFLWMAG"}
{"substance": "apo-CRBP1 (from UniProt P09455)", "values": [{"measurement": "Ki", "result": 200, "unit": "nM"}]}
